# According to article PMC11045787, “Disordered clock protein interactions and charge blocks turn an hourglass into a persistent circadian oscillator” (Nature Communications, 2024):
# Where no end group is shown, it is not given here.
# T1: FRQ-interacting RNA Helicase (FRH), a.a. 100-1106, with 6x His-tag (N. crassa, UniProt Q1K502 100-1106)
# T1 construct: The preparation was only about 30% FRH; the other proteins were left in on purpose; also called FRHΔ100; E. coli expressed FRH; source: E. coli BL21 (DE3), Ni-NTA eluate, de-salted and buffer-exchanged to PBS (~30% FRH by Coomassie gel); not shown: His6, N-terminal, kept
# T1 sequence (looked up): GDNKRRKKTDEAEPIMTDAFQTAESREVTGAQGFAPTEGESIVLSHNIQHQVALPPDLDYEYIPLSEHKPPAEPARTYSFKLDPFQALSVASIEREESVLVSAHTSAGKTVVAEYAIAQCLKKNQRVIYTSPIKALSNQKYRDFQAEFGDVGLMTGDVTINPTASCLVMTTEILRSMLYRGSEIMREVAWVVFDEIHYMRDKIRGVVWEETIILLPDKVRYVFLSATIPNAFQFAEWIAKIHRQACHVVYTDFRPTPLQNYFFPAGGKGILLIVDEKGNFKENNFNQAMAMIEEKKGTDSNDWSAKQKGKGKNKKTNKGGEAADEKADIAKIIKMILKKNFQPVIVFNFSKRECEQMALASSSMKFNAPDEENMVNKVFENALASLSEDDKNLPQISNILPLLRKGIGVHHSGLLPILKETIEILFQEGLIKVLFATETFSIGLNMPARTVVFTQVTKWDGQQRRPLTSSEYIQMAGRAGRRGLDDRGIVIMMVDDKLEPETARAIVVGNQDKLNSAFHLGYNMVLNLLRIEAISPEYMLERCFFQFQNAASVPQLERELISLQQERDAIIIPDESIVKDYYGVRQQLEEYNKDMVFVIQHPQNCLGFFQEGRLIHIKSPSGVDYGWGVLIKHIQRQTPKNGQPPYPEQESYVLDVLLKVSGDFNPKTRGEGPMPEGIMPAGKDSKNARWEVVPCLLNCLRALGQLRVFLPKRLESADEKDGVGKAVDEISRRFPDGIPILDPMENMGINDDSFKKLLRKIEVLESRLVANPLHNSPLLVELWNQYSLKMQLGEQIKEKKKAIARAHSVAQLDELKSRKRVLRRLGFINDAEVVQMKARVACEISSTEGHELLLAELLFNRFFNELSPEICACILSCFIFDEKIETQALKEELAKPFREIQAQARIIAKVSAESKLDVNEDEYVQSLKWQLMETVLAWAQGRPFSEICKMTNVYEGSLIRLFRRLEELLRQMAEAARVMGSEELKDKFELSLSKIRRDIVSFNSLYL
# Biological target: T1, FRQ-interacting RNA Helicase (FRH), …
# Experiment: peptide or protein array; LOCATE Library II: rationally designed FRQ peptides (parents, scrambles, truncations, substitutions) spotted on slides; ~100 nM FRH in solution, room temperature, PBS pH 7.0; read with anti-His and chemiluminescence; FRH preparation ~30% pure
# Details: both partners purified
binder,measurement,value
"Ac-MTDKEKKKLVVRRLE (Made from C- to N-terminus on cellulose; printed as a peptide-cellulose stock; source: synthetic peptide (Fmoc, on cellulose disks, spotted on nitrocellulose-coated slides)) [FRQ peptide MTDKEKKKLVVRRLE (near the FCD-1 region)]",binding result,binds
